According to US6927401B1, “Method of characterizing fluorescent molecules or other particles using generating functions” (Evotec OAI AG, priority 1999, dated 2005):

Assays:
EGF receptor = biological target: T1, EGF receptor (Homo sapiens, UniProt P00533); experiment: FIDA competition assay, HCT membranes with TMR-EGF and competitor; conditions: binding normalized to absence of competitor, read-out: affinity (competition with TMR-EGF)
T1 construct: endogenous in cells; host or cells: HCT (human colon carcinoma tumor) cells, crude membranes
Experimental: Binding was determined by the method according to the present invention and was normalized to that in the absence of competitor.

[1] = tested on: monoclonal antibody exposed on the surface of hybridoma cell line HB-8152
Experimental: The cell number of a confluent hybridoma culture was determined to be 1.6×10^6 per ml and aliquotes with approx. 0.5×10^6 hybridoma cells in 100 μl were used for each single experiment. The cells were washed in 100 μl phosphate buffered saline (PBS) buffer for 5 minutes to remove soluble antibody from the assay. Subsequently, the cells were incubated for 30 minutes in 100 μl PBS containing the theophylline-TAMRA conjugate at different concentrations: 0, 0.4, 2, 8, 16, 40, 200, 800 nM. […] The degree of fluorescence labelling of the hybridoma cells was determined for each single experiment in four independent measurements.

Ki (EGF receptor)	IC50 [1]	Molecule
0.23 ± 0.02 nM		betacellulin: polypeptide growth factor with sequence identity with EGF, from R & D Systems
	250 nM	Cn1c(=O)c2[nH]cnc2n(C)c1=O [theophylline, 1,3-dimethylxanthine]
